Test results: publication PMC4599343 (Archives of biochemistry and biophysics, 2015)
Each block holds one molecule with its values, some of them ahead of it.

Tests used:
CYP2B6 [1] = target: T1, CYP2B6 (Homo sapiens, UniProt P20813, K262R/Y226H); assay: biochemical
T1 sequence (P20813 29-491 Y226H/K262R): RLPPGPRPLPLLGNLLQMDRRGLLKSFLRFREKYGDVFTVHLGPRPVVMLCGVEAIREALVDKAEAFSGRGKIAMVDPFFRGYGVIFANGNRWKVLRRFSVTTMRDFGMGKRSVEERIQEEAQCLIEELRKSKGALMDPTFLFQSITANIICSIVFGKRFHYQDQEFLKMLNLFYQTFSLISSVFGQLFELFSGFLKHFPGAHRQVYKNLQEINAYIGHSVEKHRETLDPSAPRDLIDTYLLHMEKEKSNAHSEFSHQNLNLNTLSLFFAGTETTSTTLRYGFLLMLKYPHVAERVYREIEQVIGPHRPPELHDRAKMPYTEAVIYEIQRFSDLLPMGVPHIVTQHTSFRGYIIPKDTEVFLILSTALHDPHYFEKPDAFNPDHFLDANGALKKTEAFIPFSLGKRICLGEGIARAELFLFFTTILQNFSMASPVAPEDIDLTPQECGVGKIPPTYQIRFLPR

CYP2B6 [2] = target: T2, CYP2B6 (Homo sapiens, UniProt P20813, Y226H/K262R); assay type: biochemical; conditions: reconstituted purified enzyme
T2 sequence (P20813 29-491 Y226H/K262R): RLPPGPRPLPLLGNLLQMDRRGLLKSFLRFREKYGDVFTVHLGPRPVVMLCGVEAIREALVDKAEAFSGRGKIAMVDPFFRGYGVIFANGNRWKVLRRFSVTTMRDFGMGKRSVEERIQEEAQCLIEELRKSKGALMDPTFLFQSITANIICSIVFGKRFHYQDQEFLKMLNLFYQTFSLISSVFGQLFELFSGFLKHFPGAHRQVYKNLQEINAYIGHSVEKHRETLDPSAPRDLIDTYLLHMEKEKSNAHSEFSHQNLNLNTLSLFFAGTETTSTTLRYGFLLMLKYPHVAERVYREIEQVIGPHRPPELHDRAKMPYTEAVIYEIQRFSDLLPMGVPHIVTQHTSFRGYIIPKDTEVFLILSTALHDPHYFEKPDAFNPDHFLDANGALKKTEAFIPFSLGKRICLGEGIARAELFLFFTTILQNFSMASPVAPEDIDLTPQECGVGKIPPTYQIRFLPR

[3] = substrate: CCOc1ccc2c(C(F)(F)F)cc(=O)oc2c1; assay: steady-state O-deethylation kinetics, reconstituted purified enzyme; assay type: biochemical, Oryctolagus cuniculus; conditions: heme
[4] = substrate: O=c1ccc2nc3ccc(OCc4ccccc4)cc3oc-2c1; assay: steady-state O-debenzylation kinetics, reconstituted purified enzyme; assay type: biochemical, Oryctolagus cuniculus; conditions: heme

IC50 (CYP2B6 [1]): 739 ± 42.5 µM
Molecule: OC[C@H]1O[C@H](O[C@H]2[C@H](O)[C@@H](O)[C@H](OCCCCCC3CCCCC3)O[C@@H]2CO)[C@H](O)[C@@H](O)[C@@H]1O [CYMAL-5, 5-cyclohexyl-1-pentyl-β-D-maltoside]

Km (CYP2B6 [2]): 6.2 ± 0.6 µM
Molecule: CCOc1ccc2c(C(F)(F)F)cc(=O)oc2c1 [7-EFC, 7-ethoxy-4-(trifluoromethyl)coumarin]

B1: CYP2B4 (Oryctolagus cuniculus; H226Y) (protein)
chain: GRLPPGPSPLPVLGNLLQMDRKGLLRSFLRLREKYGDVFTVYLGSRPVVVLCGTDAIREALVDQAEAFSGRGKIAVVDPIFQGYGVIFANGERWRALRRFSLATMRDFGMGKRSVEERIQEEARCLVEELRKSKGALLDNTLLFHSITSNIICSIVFGKRFDYKDPVFLRLLDLFFQSFSLISSFSSQVFELFPGFLKYFPGTHRQIYRNLQEINTFIGQSVEKHRATLDPSNPRDFIDVYLLRMEKDKSDPSSEFHHQNLILTVLSLFFAGTETTSTTLRYGFLLMLKYPHVTERVQKEIEQVIGSHRPPALDDRAKMPYTDAVIHEIQRLGDLIPFGVPHTVTKDTQFRGYVIPKNTEVFPVLSSALHDPRYFETPNTFNPGHFLDANGALKRNEGFMPFSLGKRICLGEGIARTELFLFFTTILQNFSIASPVPPEDIDLTPRESGVGNVPPSYQIRFLAR
Km [3]: 28.4 ± 7.6 µM
kcat [3]: 0.123 ± 0.0217 s⁻¹
kcat/Km [3]: 4330 M⁻¹ s⁻¹
Km [4]: 1.03 ± 0.22 µM
kcat [4]: 0.03267 ± 0.000167 s⁻¹
kcat/Km [4]: 31700 M⁻¹ s⁻¹
